In CN106117359A (UNIV SUN YAT SEN, dated 2016):

B1: 抗CD3单域抗体 C12 (sdAb clone C12) (VHH)
VHH: QVQLQESGGGLVQPGGSLRLSCAASGSMYRPNTMGWHRQAPGEQRKLVARITSDGNTNYADSVKGRFTISRDNAKNTVHLEMNSLQPEDTAVYYCYYSDFVNLRGFWGQGTQVTVSS
notes: Llama sdAb from a phage display library; Tested as unpurified sdAb-SASA protein in E. coli expression medium or culture supernatant; 1 in its text; also called sdAb-SASA; not shown: SASA fusion partner from the pFASEBA vector (sdAb-SASA protein in expression medium)

How the values were obtained:
[1] = target: CD3 on Jurkat细胞 (Jurkat靶标细胞) (human) (UniProt P07766); test: flow cytometry (FACSCalibur), culture supernatant on Jurkat cells; negative control sdAb
CD3-His蛋白(MP-5) = target: T1, CD3-His蛋白(MP-5) (human, UniProt P07766 23-126); test: BLI (Octet RED96) off-rate screening; sdAb-SASA from expression medium captured on BSA-coated biosensor, CD3 at 100 nM in solution, 30°C, 1:1 Langmuir model
T1 construct: also called CD3蛋白; not shown: His tag

[2] = target: CD3 on Jurkat细胞 (Jurkat靶标细胞) (human) (UniProt P07766); test: flow cytometry (FACSCalibur), culture supernatant on Jurkat cells

T1 sequence (P07766 23-126): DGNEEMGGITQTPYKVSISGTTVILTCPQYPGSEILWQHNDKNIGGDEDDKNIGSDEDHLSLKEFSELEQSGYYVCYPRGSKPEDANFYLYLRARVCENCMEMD

| Molecule | MFI [1] [MFI] | koff (CD3-His蛋白(MP-5)) [s⁻¹] | MFI [2] [MFI] |
| --- | --- | --- | --- |
| NC-sdAb (相同形式的非相关性sdAb) (VHH) | 115 | – | – |
| B1 | – | 6.61e-05 | 2330 |
